Experimental findings from the supplement of paper PMC10567573 are described below.

The labels stand for the following.
B1: SFRS1 (parent)
chain: YSPRRSRGSPRYSPRHSRSRSRT
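Note: lentivirally expressed fusions sorted by FACS into six bins by GFP to DsRed ratio, PSI derived from sequencing read proportions per bin multiplied by bin number.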

The data set covers variants of B1. Nature of the data set: protein stability index of a GFP-peptide fusion (GPS, HEK-293T) (PSI 1-6); higher = more stable. The note with it: c terminus: native.
Consider YSPRRSRGSPRYSPRHSRDRSRT, for which the protein stability index worked out at 3.75.
Regarding YSPRRSRGSPRYSPRHSRQRSRT, the protein stability index came to 3.89.
On to YSPRRSRGSPRYSPRHSRWRSRT, for which the protein stability index came out at 3.76.
Regarding YSPRRSRGSPRYSPRHSRERSRT, the protein stability index was 3.14.
The figure for YSPRRSRGSPRYSPRHSRNRSRT is 4.23; for YSPRRSRGSPRYSPRHSRGRSRT it is 3.95; for YSPRRSRGSPRYSPRHSRARSRT it is 2.98.
With YSPRRSRGSPRYSPRHSRPRSRT the figure was 4.39.
With YSPRRSRGSPRYSPRHSRCRSRT the figure was 3.71.
Take YSPRRSRGSPRYSPRHSRLRSRT: the protein stability index was 3.79.
On to YSPRRSRGSPRYSPRHSRIRSRT, for which the protein stability index worked out at 3.8.
For the variant YSPRRSRGSPRYSPRHSRFRSRT, the protein stability index was 3.75.
The figure for YSPRRSRGSPRYSPRHSRRRSRT is 3.55; for YSPRRSRGSPRYSPRHSRMRSRT it is 2.9.
The figure for YSPRRSRGSPRYSPRHSRHRSRT is 3.89; for YSPRRSRGSPRYSPRHSRTRSRT it is 3.68.
YSPRRSRGSPRYSPRHSRYRSRT: the protein stability index was 3.96.
The figure for YSPRRSRGSPRYSPRHSRVRSRT is 3.73; for YSPRRSRGSPRYSPRHSRKRSRT it is 3.88.
For the variant YSPRRSRGSPRYSPRHSRSRSFT, the protein stability index came out at 3.58.
With YSPRRSRGSPRYSPRHSRSRSST the figure was 3.5; with YSPRRSRGSPRYSPRHSRSRSHT, 4.14; with YSPRRSRGSPRYSPRHSRSRSET, 4.25.
As for YSPRRSRGSPRYSPRHSRSRSMT, the protein stability index is 3.8.
For the variant YSPRRSRGSPRYSPRHSRSRSYT, the protein stability index is 3.9.
For the variant YSPRRSRGSPRYSPRHSRSRSQT, the protein stability index was determined as 4.06.
The figure for YSPRRSRGSPRYSPRHSRSRSPT is 4.04.
Turning to YSPRRSRGSPRYSPRHSRSRSLT, the protein stability index turned out to be 4.25.
The figure for YSPRRSRGSPRYSPRHSRSRSDT is 3.85.
As for YSPRRSRGSPRYSPRHSRSRSCT, the protein stability index turned out to be 3.62.
With YSPRRSRGSPRYSPRHSRSRSVT the figure was 4.05.
Consider YSPRRSRGSPRYSPRHSRSRSIT, for which the protein stability index was found to be 3.8.
With YSPRRSRGSPRYSPRHSRSRSTT the figure was 3.97.
On to YSPRRSRGSPRYSPRHSRSRSWT, for which the protein stability index turned out to be 3.32.
On to YSPRRSRGSPRYSPRHSRSRSGT, for which the protein stability index amounted to 3.27.
With YSPRRSRGSPRYSPRHSRSRSKT the figure was 3.77.
YSPRRSRGSPRYSPRHSRSRSNT: the protein stability index is 3.46.
The figure for YSPRRSRGSPRYSPRHSRSRSAT is 2.02; for YSPRRSRGSPRYSPRHSRSRHRT it is 3.79; for YSPRRSRGSPRYSPRHSRSRPRT it is 4.3.
For the variant YSPRRSRGSPRYSPRHSRSRYRT, the protein stability index was determined as 4.
With YSPRRSRGSPRYSPRHSRSRTRT the figure was 3.34; with YSPRRSRGSPRYSPRHSRSRART, 3.41.
The figure for YSPRRSRGSPRYSPRHSRSRWRT is 4.19.
Turning to YSPRRSRGSPRYSPRHSRSRKRT, the protein stability index came out at 3.79.
The figure for YSPRRSRGSPRYSPRHSRSRIRT is 3.28.
The figure for YSPRRSRGSPRYSPRHSRSRVRT is 3.49.
With YSPRRSRGSPRYSPRHSRSRQRT the figure was 3.62; with YSPRRSRGSPRYSPRHSRSRCRT, 3.06; with YSPRRSRGSPRYSPRHSRSRNRT, 3.98.
Turning to YSPRRSRGSPRYSPRHSRSRERT, the protein stability index was determined as 3.8.
With YSPRRSRGSPRYSPRHSRSRLRT the figure was 3.23; with YSPRRSRGSPRYSPRHSRSRMRT, 3.94; with YSPRRSRGSPRYSPRHSRSRGRT, 2.67.
The figure for YSPRRSRGSPRYSPRHSRSRDRT is 3.79; for YSPRRSRGSPRYSPRHSRSRFRT it is 3.95.
With YSPRRSRGSPRYSPRHSRSRRRT the figure was 4.2.
Regarding YSPRRSRGSPRYSPRHSRSRSRM, the protein stability index amounted to 3.33.
As for YSPRRSRGSPRYSPRHSRSRSRE, the protein stability index was determined as 4.56.
With YSPRRSRGSPRYSPRHSRSRSRW the figure was 3.79; with YSPRRSRGSPRYSPRHSRSRSRL, 1.96.
With YSPRRSRGSPRYSPRHSRSRSRY the figure was 4.44; with YSPRRSRGSPRYSPRHSRSRSRF, 4.22.
Turning to YSPRRSRGSPRYSPRHSRSRSRV, the protein stability index came out at 3.69.
Turning to YSPRRSRGSPRYSPRHSRSRSRN, the protein stability index came to 3.17.
With YSPRRSRGSPRYSPRHSRSRSRS the figure was 3.4; with YSPRRSRGSPRYSPRHSRSRSRC, 3.5.
In the case of YSPRRSRGSPRYSPRHSRSRSRP, the protein stability index is 4.23.
With YSPRRSRGSPRYSPRHSRSRSRH the figure was 2.64; with YSPRRSRGSPRYSPRHSRSRSRD, 3.32; with YSPRRSRGSPRYSPRHSRSRSRQ, 2.61.
The figure for YSPRRSRGSPRYSPRHSRSRSRI is 4.04; for YSPRRSRGSPRYSPRHSRSRSRK it is 4.73.
Turning to YSPRRSRGSPRYSPRHSRSRSRR, the protein stability index turned out to be 4.22.
The figure for YSPRRSRGSPRYSPRHSRSWSRT is 1.77; for YSPRRSRGSPRYSPRHSRSLSRT it is 4.08.
With YSPRRSRGSPRYSPRHSRSNSRT the figure was 4.44; with YSPRRSRGSPRYSPRHSRSCSRT, 3.49; with YSPRRSRGSPRYSPRHSRSSSRT, 4.21.
Consider YSPRRSRGSPRYSPRHSRSPSRT, for which the protein stability index was determined as 3.81.
Consider YSPRRSRGSPRYSPRHSRSKSRT, for which the protein stability index came to 3.85.
For the variant YSPRRSRGSPRYSPRHSRSMSRT, the protein stability index is 3.4.
The figure for YSPRRSRGSPRYSPRHSRSVSRT is 3.66; for YSPRRSRGSPRYSPRHSRSYSRT it is 2.9; for YSPRRSRGSPRYSPRHSRSQSRT it is 4.04.
With YSPRRSRGSPRYSPRHSRSTSRT the figure was 3.6.
With YSPRRSRGSPRYSPRHSRSASRT the figure was 3.68; with YSPRRSRGSPRYSPRHSRSFSRT, 2.71; with YSPRRSRGSPRYSPRHSRSDSRT, 4.36.
With YSPRRSRGSPRYSPRHSRSESRT, the protein stability index turned out to be 4.48.
For YSPRRSRGSPRYSPRHSRSHSRT, the protein stability index worked out at 4.12.
For the variant YSPRRSRGSPRYSPRHSRSISRT, the protein stability index stood at 3.69.
With YSPRRSRGSPRYSPRHSRSGSRT the figure was 3.79; with YSPRRSRGSPRYSPRHSVSRSRT, 3.68.
For the variant YSPRRSRGSPRYSPRHSMSRSRT, the protein stability index was determined as 2.87.
